Article PMC11413788, “The heterobivalent (SSTR2/albumin) radioligand [^67Cu]Cu-NODAGA-cLAB4-TATE enables efficient somatostatin receptor radionuclide theranostics” (Theranostics, 2024)
Where two headings read alike, the source gives them in different places.

Experiments:
[1] = cited from earlier work
NCI‑H69 xenografts = details: mouse, in vivo; cited from earlier work
[2] = mouse, in vivo; cited from earlier work
[3] = tested on: HEK293-SSTR2+ tumor xenografts; details: within seven days, cited from earlier work
GOT‑1 xenografts = details: mouse, in vivo; cited from earlier work
[4] = human
Description: Tissue-specific pharmacokinetic profiles of radioligands in mice were transformed into human time scale and organ masses using allometric scaling, and dose calculations were performed as reported elsewhere, with some modifications. In brief, projected cumulated activity in human organs was calculated by curve fitting as described above for investigations in mice. Calculations were performed separately for female and male subjects. Cumulated activity in the urinary bladder was determined assuming a voiding interval of four hours. Projected human doses were calculated for male and female subjects using the ICRP 89 Adult Female (60 kg) and ICRP 89 Adult Male (73 kg) models implemented in Olinda 2.2.3 (Hermes Medical Solutions AB).

[5] = Absorbed dose calculation in tumors and kidneys of MPC allograft mice; details: mouse, in vivo
Description: (§1) Unless specified otherwise, all activity values are reported without decay correction. Time courses of normalized activity concentrations [% initial A/mL] (organs, tumors) or normalized activity amounts [% initial A] (total body, urinary bladder) were analyzed by non-linear regression using the 'One-phase decay', 'Plateau followed by one-phase decay', or 'Two-phase decay' models implemented in Prism 10 (GraphPad Software), with extrapolated y‑values approaching a lower limit constrained to 0. The normalized time-cumulated activity per milliliter of tissue [% initial A/mL × d] was calculated from areas under time-activity curves. For dose estimation in tumors and kidneys, these values were further converted into total time-cumulated organ activity per initial activity dose [MBq × h/MBq] using a realistic dosimetry model for 30‑g‑mice implemented in Olinda 2.2.3 (Hermes Medical Solutions AB, Stockholm, Sweden). The physical density of tissues was assumed to be 1 g/cm^3. The radionuclide-specific mean absorbed tissue dose DT [Gy] in tumors and kidneys was calculated using the sphere model in Olinda 2.2.3 (Hermes Medical Solutions AB).

[6] = Tissue pharmacokinetics by quantitative SPECT imaging in MPC allograft mice; details: mouse, in vivo; for tissue uptake per volume at 1 h / tissue uptake per volume at 5 h / tissue uptake per volume at 72 h / tissue uptake per volume at 168 h / Heart (blood) concentration half-life eff. / Liver concentration half-life eff. / Total body contents half-life eff.: female; for tissue uptake per volume at 1 h / tissue uptake per volume at 5 h / tissue uptake per volume at 72 h / tissue uptake per volume at 168 h: Rj:NMRI-Foxn1^nu/nu nude, iv, 50 MBq, total radioactivity; for Heart (blood) concentration half-life eff. / Liver concentration half-life eff. / Total body contents half-life eff.: nude (Rj:NMRI-Foxn1^nu/nu)
Description: All animal experiments were carried out according to the guidelines of the German Regulations for Animal Welfare and have been approved by the local Ethical Committee for Animal Experiments. MPC cells (4 × 10^6) were injected subcutaneously into the shoulder of 10-14‑week‑old female nude mice (Rj:NMRI-Foxn1^nu/nu, Janvier Labs, Le Genest-Saint-Isle, France). Prior to treatment and imaging procedures, anesthesia was induced and maintained with inhalation of 10 % (v/v) desflurane in 30/10 % (v/v) oxygen/air. During anesthesia, animals were continuously warmed at 37 °C. Body weight was monitored three times per week and tumor diameters were measured using a caliper. Tumor volume was calculated assuming a tri‑axial ellipsoid with the diameters a, b, and c using the formula V = π/6 × a × b × c. For urine collection, animals were separated in clear conventional rodent boxes. After spontaneous micturition, voided urine was aspirated with a pipette tip, diluted 1:2 with ultrapure water and stored at -80 °C until further processing. For blood sampling, animals were placed in a restrainer and 50 µL of blood were collected from a lateral tail vein using a syringe needle rinsed with heparin. Blood samples were mixed with 4 µL of a 10 % (w/v) aqueous potassium-EDTA solution and kept at 4 °C until further processing. Animals were sacrificed using CO2 inhalation and cervical dislocation.
Tumor-bearing mice were treated with the SSTR2 radioligands at a single initial activity dose of 50 MBq delivered in 0.2 mL of 0.154 mol/L NaCl(aq) through injection into a tail vein (see Supporting information, Table S 1 for further details). Small-animal single-photon emission computed tomography (SPECT) was performed using the Mediso NanoScan® SPECT/CT (Mediso Medical Imaging Systems, Budapest, Hungary). […] With each SPECT scan, a corresponding CT image was recorded and used for anatomical referencing and attenuation correction. Details on image acquisition and reconstruction parameters are included in the Supporting information.
Regions of interest (ROIs) were generated using tissue-specific signal intensity thresholds. ROI-averaged activity concentrations in tissues [MBq/mL] were determined. Details on SPECT image resolution, image quantification tests, and tissue delineation are included in the Supporting information.
as §1
Method: Extraction of tissue -specific activity concentrations from SPECT/CT images Tissue-specific regions of interest (ROIs) were generated in ROVER 3.0.77h (ABX). Sphere masks were positioned to pre -select tissue -specific regions for delineation. ROIs were generated within the masks using tissue -specific threshold -based delineation (% of maximum voxel intensity within the given mask)

MPC cells [7] = assay: Uptake of radioligands in intact MPC cells (acid wash); assay type: cell-based, mouse; details: 25 nmol/L; for Uptake fraction: non-acid-releasable fraction normalized to specifically bound radioligand
Description: Uptake of SSTR2 radioligands was measured and analyzed as previously described, with some modifications. In brief, radioligands were prepared at a molar activity of 25 MBq/nmol. […] Non-specific binding and uptake were measured in presence of 1 µmol/L acetyl-TATE. The uptake fraction of radioligands was measured after acid wash with Dulbecco's phosphate-buffered saline containing 0.9 mmol/L CaCl2, 0.5 mmol/L MgCl2, and 0.05 mol/L glycine, pH 2.8, for 5 min.

MPC cells [8] = assay type: cell-based, mouse; details: relative loss normalized to initial SSTR2-specific binding
Description: MPC cells (2.25 × 10^5/well) were seeded into collagen coated CELLSTAR 48‑well microplates (Greiner Bio‑One, 67180) and grown for three days. Cell culture medium and washing buffer were pre-warmed at 37 °C, unless specified otherwise. Radioligands were prepared at a molar activity of 40 MBq/nmol. Cells were incubated with the radioligands at a final concentration of 2.5 nmol/L in 0.5 mL of cell culture medium for 1 hour at 37 °C. Non-specific binding was determined in presence of 1 µmol/L acetyl-TATE. Binding to plastic surfaces was determined in cell-free cavities. At the end of radioligand exposure, incubation medium was removed, and cells were washed three times with Dulbecco's phosphate-buffered saline containing 0.9 mmol/L CaCl2 and 0.5 mmol/L MgCl2. Cells were overlayed with 0.5 mL of radioligand-free medium and further incubated at 37 °C for a total duration of 24 hours. At specific sampling points (1, 2, 5, and 24 hours), supernatants were removed from all cavities. […] Activity of cell homogenates was measured using the gamma counter Wizard^2 2480 (PerkinElmer, Waltham, MA, USA). Release kinetics were analyzed by non-linear regression using the 'two phase decay' model implemented in Prism 10 (GraphPad Software) with the 'Top' and 'Bottom' parameters constrained at 100 %, and 0 %, respectively.

[9] = cited from earlier work; remark: listed apart in the source

For `C[C@@H](O)[C@H](NC(=O)[C@@H]1CSSC[C@H](NC(=O)[C@@H](Cc2ccccc2)NC(=O)CN2CCN(CC(=O)O)CCN(CC(=O)O)CCN(CC(=O)O)CC2)C(=O)N[C@@H](Cc2ccc(O)cc2)C(=O)N[C@H](Cc2c[nH]c3ccccc23)C(=O)N[C@@H](CCCCN)C(=O)N[C@@H]([C@@H](C)O)C(=O)N1)C(=O)O` [[^177Lu]Lu‑DOTA-TATE, metal not drawn], the “total absorbed kidney doses well tolerated without acute nephrotoxicity” value ([1]; clinical experience) is given as “up to 23 Gy”, the “human effective dose in clinical dosimetry” value ([1]; human, in vivo) is given as 0.069 mSv/MBq and the “absorbed tumor dose per administered activity” value (NCI‑H69 xenografts) is given as 0.33-0.36 Gy/MBq. For the same compound, the “release from tumor xenografts” value (NCI‑H69 xenografts) was 68−85%, the “total absorbed dose in tumors” value (NCI‑H69 xenografts) was 10.0-10.2 Gy and the “threshold dose for proximal tubular damage, absorbed in renal cortex” value [2] was 24 Gy. For the same compound, the “release from tumor xenografts” value [3] was 95%, the “absorbed tumor dose per administered activity” value (GOT‑1 xenografts) was 0.27 Gy and the “release from tumor xenografts” value (GOT‑1 xenografts) was 47%. The “total absorbed dose in tumors” value (GOT‑1 xenografts) was 8.1 Gy, the “extrapolated female blood effective half-life” value [4] was 49.8 min and the “DT, Kidneys (mean absorbed dose in kidneys)” value [5] was 2.81 ± 0.14 Gy. The “absorbed doses in MPC tumors” value [5] was 22.0-41.1 Gy, the “estimated absorbed dose in kidneys” value [5] was 2.42-2.81 Gy/50 MBq and the “highest absorbed dose in MPC tumors per administered activity” value [5] was 0.80-0.82 Gy/MBq. The tissue uptake per volume at 1 h ([6]; Heart) was 0.21 ± 0.18 %ID/mL, the tissue uptake per volume at 1 h ([6]; Kidneys) was 4.05 ± 0.01 %ID/mL and the tissue uptake per volume at 5 h ([6]; Kidneys) was 3.23 ± 0.04 %ID/mL. For the same compound, the tissue uptake per volume at 72 h ([6]; Kidneys) was 0.08 ± 0.01 %ID/mL, the tissue uptake per volume at 1 h ([6]; Liver) was 0.24 ± 0.04 %ID/mL and the tissue uptake per volume at 72 h ([6]; Tumor) was 6.79 ± 0.55 %ID/mL. The tissue uptake per volume at 168 h ([6]; Tumor) was 1.33 ± 0.11 %ID/mL, the tissue uptake per volume at 1 h ([6]; 1 h, decay-corrected, Am 40 MBq/nmol, read-out: Tumor) was 22.7 ± 1.84 %ID/mL and the “Heart (blood) concentration half-life eff.” value [6] was 7.8 min. The “Liver concentration half-life eff.” value [6] was 1.14 ± 0.02 h, the “Total body contents half-life eff.” value [6] was 15 min and the “release from MPC tumors” value [6] was 94%.

In the case of `C[C@@H](O)[C@H](NC(=O)[C@@H]1CSSC[C@H](NC(=O)[C@@H](Cc2ccccc2)NC(=O)CN2CCN(CC(=O)O)CCN(CC(=O)O)CCN(CC(=O)O)CC2)C(=O)N[C@@H](Cc2ccc(O)cc2)C(=O)N[C@H](Cc2c[nH]c3ccccc23)C(=O)N[C@@H](CCCCN)C(=O)N[C@@H]([C@@H](C)O)C(=O)N1)C(=O)O` [[^64Cu]Cu‑DOTA-TATE, metal not drawn], the Uptake fraction (MPC cells [7]; listed as DOTA ^64Cu) is given as 61 ± 4.6% and the “release from tumor xenografts” value ([3]; reported, reference not given) is given as 86%.

In the case of `C[C@@H](O)[C@H](NC(=O)[C@@H]1CSSC[C@H](NC(=O)[C@@H](Cc2ccccc2)NC(=O)CN2CCN(CC(=O)O)CCN(CC(=O)O)CCN(CC(=O)O)CC2)C(=O)N[C@@H](Cc2ccc(O)cc2)C(=O)N[C@H](Cc2c[nH]c3ccccc23)C(=O)N[C@@H](CCCCN)C(=O)N[C@@H]([C@@H](C)O)C(=O)N1)C(=O)O` [[^68Ga]Ga‑DOTA-TATE, metal not drawn], the Uptake fraction (MPC cells [7]; listed as DOTA ^68Ga) is reported as 87 ± 1.9%.

In the case of `C[C@@H](O)[C@H](NC(=O)[C@@H]1CSSC[C@H](NC(=O)[C@@H](Cc2ccccc2)NC(=O)CCC(C(=O)O)N2CCN(CC(=O)O)CCN(CC(=O)O)CC2)C(=O)N[C@@H](Cc2ccc(O)cc2)C(=O)N[C@H](Cc2c[nH]c3ccccc23)C(=O)N[C@@H](CCCCN)C(=O)N[C@@H]([C@@H](C)O)C(=O)N1)C(=O)O` (stereo partly drawn) [[^67Cu]Cu‑NODAGA-TATE, metal not drawn], the “extrapolated female blood effective half-life” value [4] is reported as 52.8 min, the “DT, Kidneys (mean absorbed dose in kidneys)” value [5] is reported as 2.42 ± 0.20 Gy and the “estimated absorbed dose in kidneys” value [5] is reported as 2.42-2.81 Gy/50 MBq. It also gave a tissue uptake per volume at 1 h ([6]; Heart) of 0.35 ± 0.13 %ID/mL, a tissue uptake per volume at 1 h ([6]; Kidneys) of 6.69 ± 0.46 %ID/mL and a tissue uptake per volume at 5 h ([6]; Kidneys) of 3.87 ± 0.26 %ID/mL. For the same compound, the tissue uptake per volume at 1 h ([6]; Liver) was 0.63 ± 0.01 %ID/mL, the tissue uptake per volume at 5 h ([6]; Liver) was 0.57 ± 0.01 %ID/mL and the tissue uptake per volume at 72 h ([6]; Liver) was 0.15 ± 0.04 %ID/mL. For the same compound, the tissue uptake per volume at 168 h ([6]; Liver) was 0.03 ± 0.02 %ID/mL, the tissue uptake per volume at 1 h ([6]; Tumor) was 17.7 ± 1.83 %ID/mL and the tissue uptake per volume at 5 h ([6]; Tumor) was 13.5 ± 1.4 %ID/mL. The tissue uptake per volume at 72 h ([6]; Tumor) was 0.14 ± 0.01 %ID/mL, the “Heart (blood) concentration half-life eff.” value [6] was 7.8 min and the “Liver concentration half-life eff.” value [6] was 20.1 ± 4.02 h. For the same compound, the “Total body contents half-life eff.” value [6] was 19.2 min.

For `C[C@@H](O)[C@H](NC(=O)[C@@H]1CSSC[C@H](NC(=O)[C@@H](Cc2ccccc2)NC(=O)CCC(C(=O)O)N2CCN(CC(=O)O)CCN(CC(=O)O)CC2)C(=O)N[C@@H](Cc2ccc(O)cc2)C(=O)N[C@H](Cc2c[nH]c3ccccc23)C(=O)N[C@@H](CCCCN)C(=O)N[C@@H]([C@@H](C)O)C(=O)N1)C(=O)O` (stereo partly drawn) [[^64Cu]Cu‑NODAGA-TATE, metal not drawn], the 24 h release (MPC cells [8]) was 73 ± 1.9^ # %, the Fast fraction (MPC cells [8]; 1 hour exposure) was 42 ± 3.3% and the “effective uptake lower compared to [177Lu]Lu-DOTA-TATE” value (MPC cells [7]; MPC cells) was 77%. For the same compound, the Uptake fraction (MPC cells [7]) was 64 ± 4.1% and the plasma half-life [9] was over 24 h.
